Assay results published in publication doi:10.1101/2020.12.09.417477 (bioRxiv, 2020).

What was measured:
Assay in all cases: pull-down
His-Prs-K231A = His-Prs-K231A (E. coli, UniProt P0A717 1-315, K231A)
His-Prs-K182A = His-Prs-K182A (E. coli, UniProt P0A717 1-315, K182A)
His-PrsK194A = His-PrsK194A (E. coli, UniProt P0A717 1-315, K194A)
His6-Prs = His6-Prs (E. coli, UniProt P0A717 1-315)

| binding result (His-Prs-K231A) | binding result (His-Prs-K182A) | binding result (His-PrsK194A) | binding result (His6-Prs) | Binder |
| --- | --- | --- | --- | --- |
| binds | binds | binds | binds | CobB (enzyme, E. coli, UniProt P75960 1-279, looked up) MLSRRGHRLSRFRKNKRRLRERLRQRIFFRDKVVPEAMEKPRVLVLTGAGISAESGIRTFRAADGLWEEHRVEDVATPEGFDRDPELVQAFYNARRRQLQQPEIQPNAAHLALAKLQDALGDRFLLVTQNIDNLHERAGNTNVIHMHGELLKVRCSQSGQVLDWTGDVTPEDKCHCCQFPAPLRPHVVWFGEMPLGMDEIYMALSMADIFIAIGTSGHVYPAAGFVHEAKLHGAHTVELNLEPSQVGNEFAEKYYGPASQVVPEFVEKLLKGLKAGSIA |
| – | – | – | binds | acetylated CobB (enzyme, E. coli, UniProt P75960 1-279, looked up, acetyl-lysines (acetylated in vitro with acetyl phosphate); positions are in Supplementary Table 2) MLSRRGHRLSRFRKNKRRLRERLRQRIFFRDKVVPEAMEKPRVLVLTGAGISAESGIRTFRAADGLWEEHRVEDVATPEGFDRDPELVQAFYNARRRQLQQPEIQPNAAHLALAKLQDALGDRFLLVTQNIDNLHERAGNTNVIHMHGELLKVRCSQSGQVLDWTGDVTPEDKCHCCQFPAPLRPHVVWFGEMPLGMDEIYMALSMADIFIAIGTSGHVYPAAGFVHEAKLHGAHTVELNLEPSQVGNEFAEKYYGPASQVVPEFVEKLLKGLKAGSIA |
